Measured values from US20250282885A1 (VST BIO, published 2025).

Experiments:
[1] = molecular target: human Sdc2 on Human Umbilical Vein Endothelial Cells (HUVEC) (human, UniProt P34741 19-201); assay: cell-based or functional assay
[2] = molecular target: T1, human Sdc2 (human, UniProt P34741 19-144, limits assumed); assay: Kd (human Sdc2), summary table of the mAbs
T1 construct: Antigen of the Octet tandem binning, loaded on biosensors at 100 nM; also called huSdc2; hSdc2

[3] = molecular target: T1, human Sdc2; assay: Octet tandem binning; saturating Ab m2 19838-8G17-A
Method: (§1) These studies were performed in a tandem binning assay format with human Sdc2, used as the antigen (concentration of 100 nM). Antigen loaded biosensors were dipped in a saturating solution of antibody (25 μg/ml) for 240 seconds followed by a competing antibody at 5 μg/ml for 180 seconds. […] Since saturation is not possible to achieve saturation with these clones, they are removed in as ligands, but retained in the analyte orientation in the analysis. A table summarizing the results of epitope binning of the 18 antibodies against huSdc2 is illustrated in FIG. 30. Data is normalized, where the raw binding signal from Competing Ab for a given Saturating Ab is divided by binding in the absence a […] (“buffer”). The threshold determining the matrix color is adjustable and dependent upon Ag-Ab binding. […] Table rows are based on similar looking binding profiles. Note that the coloration/cutoff is subjective, yellow color added to represent injections with ambiguous or very weak sandwiching signals. FIG. 31 illustrates a clustergram of the epitope binning studies, which was generated from the normalized binning data by importation into the statistical computing program R (The R Project for Statistical Computing: at r-project.org) and generation of a clustergram with the pvclust package.

[4] = molecular target: T1, human Sdc2; assay: Octet tandem binning; saturating Ab f9 19838-6-E17-A
Method: as §1

[5] = molecular target: T1, human Sdc2; assay: Octet tandem binning; saturating Ab f12 19838-6-N03-A
Method: as §1

[6] = molecular target: T1, human Sdc2; assay: Octet tandem binning; saturating Ab m1 19838-20H19-AB
Method: as §1

[7] = molecular target: T1, human Sdc2; assay: Octet tandem binning; saturating Ab f10 19838-10-I12-A
Method: as §1

[8] = molecular target: T1, human Sdc2; assay: Octet tandem binning; saturating Ab f11 19838-20-H19-A
Method: as §1

[9] = molecular target: T1, human Sdc2; assay: Octet tandem binning; saturating Ab f4 19844-R3-P3-C11
Method: as §1

[10] = molecular target: T1, human Sdc2; assay: Octet tandem binning; saturating Ab f6 19844-R3-P3-E09
Method: as §1

[11] = molecular target: T1, human Sdc2; assay: Octet tandem binning; saturating Ab f7 19844-R3-P3-A12
Method: as §1

[12] = molecular target: T1, human Sdc2; assay: Octet tandem binning; saturating Ab m7 19844-R3-P1-E07
Method: as §1

[13] = molecular target: T1, human Sdc2; assay: Octet tandem binning; saturating Ab f5 19844-R4M-P3-E06
Method: as §1

[14] = molecular target: T1, human Sdc2; assay: Octet tandem binning; saturating Ab f8 19844-R4M-P2-C02
Method: as §1

[15] = molecular target: T1, human Sdc2; assay: Octet tandem binning; saturating Ab m4 19844-R4M-P1-A10
Method: as §1

[16] = molecular target: T1, human Sdc2; assay: Octet tandem binning; Buffer in place of a saturating Ab
Method: as §1

[17] = molecular target: T1, human Sdc2; assay: Octet tandem binning; saturating Ab m6 19838-20H19-AA (marked non-binding ligand)
Method: as §1

[18] = molecular target: T1, human Sdc2; assay: Octet tandem binning; saturating Ab m3 19844-R3-P1-C02 (row boxed, self-self >0.09)
Method: as §1

[19] = molecular target: T1, human Sdc2; assay: Octet tandem binning; saturating Ab m8 19844-R4M-P1-B01 (marked non-binding ligand)
Method: as §1

[20] = molecular target: T1, human Sdc2; assay: Octet tandem binning; saturating Ab m5 19844-R4M-P3-A12 (row boxed, self-self >0.09)
Method: as §1

[21] = molecular target: T1, human Sdc2; assay: Octet tandem binning; saturating Ab f3 19838-6N03-A
Method: as §1

[22] = molecular target: T1, human Sdc2; assay: Octet BLI, heading box over the sensorgram
Method: In order to characterize the binding affinity and in vivo/in vitro functional ability of the twelve clones generated by the previous studies and disclosed in Table 1, a series of assays were performed on each clone. These assays measured the affinity of each antibody clone for human, pig, and mouse Sdc2 using an Octet® binding assay system. Additionally, the functional ability of each clone to inhibit VEGFA-driven permeability (see Santiago, et al. (2021) J Am Heart Assoc. 10(18):e020521) was assessed in two therapeutic settings: a “prevention” study in which three concentrations of antibody (5 μg/ml, 10 μg/ml, 15 μg/ml, 20 μg/ml, and/or 40 μg/ml depending on the study) were pre-incubated for an hour before administration of 100 ng/ml of VEGFA, and a “treatment” study in which 3 hours of pre-treatment with 100 ng/ml VEGFA were followed by treatment with antibody at 20 μg/ml or 40 μg/ml. Results are shown for 8-G17 in FIG. 8 and FIG. 9, 20-H19-AB in FIG. 10 and FIG. 11 (FIG. 12 for monkey ECs), R3-P3-C11 in FIG. 13 and FIG. 14, R4M-P3-E06 in FIG. 15 and FIG. 16, R3-P3-E09 in FIG. 17 and FIG. 18, R3-P1-C02 in FIG. 19 and FIG. 20, R3-P3-A12 in FIG. 21 and FIG. 22, R4M-P3-A12 in FIG. 23 and FIG. 24, and R4M-P1-A10 in FIG. 25 and FIG. 26.

[23] = molecular target: T1, human Sdc2; assay: Octet BLI, HIS1K sensor loaded with hSdc2, antibody as sample; Full R2 0.9248

T1 sequence (P34741 19-144 limits assumed): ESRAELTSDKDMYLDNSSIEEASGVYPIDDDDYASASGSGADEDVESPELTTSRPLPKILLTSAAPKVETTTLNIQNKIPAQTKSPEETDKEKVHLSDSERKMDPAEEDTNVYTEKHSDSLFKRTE
Sequence of human Sdc2 on Human Umbilical Vein Endothelial Cells (HUVEC) (P34741 19-201 limits assumed): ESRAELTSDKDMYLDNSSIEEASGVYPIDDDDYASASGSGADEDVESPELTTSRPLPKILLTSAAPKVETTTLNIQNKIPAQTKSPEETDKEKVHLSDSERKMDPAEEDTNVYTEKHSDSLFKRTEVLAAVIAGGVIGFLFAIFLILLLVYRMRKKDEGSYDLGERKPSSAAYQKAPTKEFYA

B1: 6-N03-A (antibody, mouse IgG1, kappa, V domains shown)
VH: EVQLVESGGGLVKPGGSLKLSCEASGITFSNYVMSWVRQTPEKRLEWVATISDGGSYTYYPDNVKGRFTISRDNAKNNLYLQMSHLKSEDTAMYYCVRDRYDYDGRVYAMDYWGQGTSVTVSS
VL: DVVMTQTPLSLPVSLGDQASISCRSSQSLVHSNGDTYLHWYLQKPGQSPKLLIYKVSNRFSGVPDRFSGSGSGTDFTLKITRVEAEDLGVYFCSQSTHVPWTFGGGTKLEIKR
% Inhibition of VEGFA-induced permeability at 24hrs (20ug/ml) [1]: 50%
Kd [2]: 1.17 nM
raw competing-Ab binding signal [3]: -0.0492
raw competing-Ab binding signal [4]: 0.422
raw competing-Ab binding signal [5]: 0.0194
raw competing-Ab binding signal [6]: 0.0812
raw competing-Ab binding signal [7]: 0.0887
raw competing-Ab binding signal [8]: 0.0908
raw competing-Ab binding signal [9]: 0.301
raw competing-Ab binding signal [10]: 0.346
raw competing-Ab binding signal [11]: 0.179
raw competing-Ab binding signal [12]: 0.486
raw competing-Ab binding signal [13]: 0.463
raw competing-Ab binding signal [14]: 0.418
raw competing-Ab binding signal [15]: 0.374
raw competing-Ab binding signal [16]: 0.477
raw competing-Ab binding signal [17]: 0.487
raw competing-Ab binding signal [18]: 0.397
raw competing-Ab binding signal [19]: 0.497
raw competing-Ab binding signal [20]: 0.472

B2: 19838-6-N03-A (antibody, IgG1, V domains shown)
VH: EVQLVESGGGLVKPGGSLKLSCEASGITFSNYVMSWVRQTPEKRLEWVATISDGGSYTYYPDNVKGRFTISRDNAKNNLYLQMSHLKSEDTAMYYCVRDRYDYDGRVYAMDYWGQGTSVTVSS
VL: DVVMTQTPLSLPVSLGDQASISCRSSQSLVHSNGDTYLHWYLQKPGQSPKLLIYKVSNRFSGVPDRFSGSGSGTDFTLKITRVEAEDLGVYFCSQSTHVPWTFGGGTKLEIKR
raw competing-Ab binding signal [21]: 0.0058
raw competing-Ab binding signal [3]: -0.0312
raw competing-Ab binding signal [4]: 0.378
raw competing-Ab binding signal [6]: 0.0556
raw competing-Ab binding signal [7]: 0.0734
raw competing-Ab binding signal [8]: 0.122
raw competing-Ab binding signal [9]: 0.197
raw competing-Ab binding signal [10]: 0.31
raw competing-Ab binding signal [11]: 0.162
raw competing-Ab binding signal [12]: 0.48
raw competing-Ab binding signal [13]: 0.463
raw competing-Ab binding signal [14]: 0.326
raw competing-Ab binding signal [15]: 0.336
raw competing-Ab binding signal [16]: 0.413
raw competing-Ab binding signal [17]: 0.501
raw competing-Ab binding signal [18]: 0.332
raw competing-Ab binding signal [19]: 0.388
raw competing-Ab binding signal [20]: 0.435

B3: R3-P3-E09 (antibody, human IgG1, kappa, V domains shown)
VH: EVQLVETGGGVVQPGRSLTLSCGASEFTFSNYAMHWVRQAPGKGLEWVAVISYDGTKKYYGDSVKGRFTISRENIKNTLYLQMNSLRSEDTAVYYCARDVGKGVTATGTFDIWGQGTMVTVSS
VL: AIRMTQSPSSLSASVGDRVTITCRASQGIGSYLAWFQQKPGEAPKSLIIDATRLKSGVPSRFSGSGSGTEFALTISSLRPEDFATYYCQQYNVSPLTFGGGTKVEIKR
notes: human IgG1 kappa from the phage campaign
% Inhibition of VEGFA-induced permeability at 24hrs (20ug/ml) [1]: 75%
Kd [2]: 17.7 nM
Kd [22]: ~17.7 nM
raw competing-Ab binding signal [21]: 0.407
raw competing-Ab binding signal [3]: 0.397
raw competing-Ab binding signal [4]: 0.376
raw competing-Ab binding signal [5]: 0.518
raw competing-Ab binding signal [6]: 0.273
raw competing-Ab binding signal [7]: 0.151
raw competing-Ab binding signal [8]: 0.337
raw competing-Ab binding signal [9]: -0.138
raw competing-Ab binding signal [11]: -0.135
raw competing-Ab binding signal [12]: 0.348
raw competing-Ab binding signal [13]: 0.338
raw competing-Ab binding signal [14]: 0.209
raw competing-Ab binding signal [15]: 0.241
raw competing-Ab binding signal [16]: 0.285
Kd [23]: 17.7 nM
koff [23]: 0.00908 s⁻¹
kon [23]: 513000 M⁻¹ s⁻¹
raw competing-Ab binding signal [17]: 0.293
raw competing-Ab binding signal [18]: 0.246
raw competing-Ab binding signal [19]: 0.307
raw competing-Ab binding signal [20]: 0.304

B4: TP-43327F (antibody, human IgG1, kappa, V domains shown)
VH: QVQLVESGGGVVQPGGSLRLSCAASGFTFNIYAMHWVRQAPGKGLEWVARIGSKSSYYATYYADSVKGRFTISRDNSKNTLYLQMNSLRTEDTAVYYCVSGKGDWGQGTLVTVSS
VL: DVVMTQSPLSLPVTLGQPASISCRSSQSLLAGDGKTYLNWFLQRPGQSPRRLIYLVSKLDSGVPDRFSGSGSGTDFTLKISRVEAEDVGVYYCWQGTHFPWTFGAGTRLEIKR
% Inhibition of VEGFA-induced permeability at 24hrs (20ug/ml) [1]: 100%
Kd [2]: < 0.1 nM

B5: TP-43329F (antibody, human IgG1, kappa, V domains shown)
VH: QVQLVESGGGVVQPGGSLRLSCAASGFTFNIYAMHWVRQAPGKGLEWVARIGSKSSYYATYYADSVKGRFTISRDNSKNTLYLQMNSLRTEDTAVYYCVSGKGDWGQGTLVTVSS
VL: DVVMTQSPLSLPVTLGQPASISCRSSQSLLAGDGKTYLNWFQQRPGQSPRRLIYLVSKLDSGVPDRFSGSGSGTDFTLKISRVEAEDVGVYYCWQGTHFPWTFGAGTRLEIKR
% Inhibition of VEGFA-induced permeability at 24hrs (20ug/ml) [1]: 100%
Kd [2]: 0.8 nM
